Drawing on paper PMC9902482 (2023), this text covers Kd and koff for 3 molecules.

T1: Lec domain of ADGRL3 (human, UniProt Q9HAR2 24-126, biotin on the Avi-tag (BirA) in the flow cytometry experiments)
T1 chain: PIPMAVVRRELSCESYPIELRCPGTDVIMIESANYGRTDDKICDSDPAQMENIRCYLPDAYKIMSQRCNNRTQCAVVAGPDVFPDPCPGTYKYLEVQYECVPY

B1: ADGRL3 Lec/Olf fragment (domain or fragment)
chain: PIPMAVVRRELSCESYPIELRCPGTDVIMIESANYGRTDDKICDSDPAQMENIRCYLPDAYKIMSQRCNNRTQCAVVAGPDVFPDPCPGTYKYLEVQYECVPYKVEQKVFLCPGLLKGVYQSEHLFESDHQSGAWCKDPLQASDKIYYMPWTPYRTDTLTEYSSKDDFIAGRPTTTYKLPHRVDGTGFVVYDGALFFNKERTRNIVKFDLRTRIKSGEAIIANANYHDTSPYRWGGKSDIDLAVDENGLWVIYATEQNNGKIVISQLNPYTLRIEGTWDTAYDKRSASNAFMICGILYVVKSVYEDDDNEATGNKIDYIYNTDQSKDSLVDVPFPNSYQYIAAVDYNPRDNLLYVWNNYHVVKYSLDFGPLD
B2: full-length extracellular region (ECR) of ADGRL3 (domain or fragment)
chain 1: FSRAPIPMAVVRRELSCESYPIELRCPGTDVIMIESANYGRTDDKICDSDPAQMENIRCYLPDAYKIMSQRCNNRTQCAVVAGPDVFPDPCPGTYKYLEVQYECVPYKVEQKVFLCPGLLKGVYQSEHLFESDHQSGAWCKDPLQASDKIYYMPWTPYRTDTLTEYSSKDDFIAGRPTTTYKLPHRVDGTGFVVYDGALFFNKERTRNIVKFDLRTRIKSGEAIIANANYHDTSPYRWGGKSDIDLAVDENGLWVIYATEQNNGKIVISQLNPYTLRIEGTWDTAYDKRSASNAFMICGILYVVKSVYEDDDNEATGNKIDYIYNTDQSKDSLVDVPFPNSYQYIAAVDYNPRDNLLYVWNNYHVVKYSLDFGPLDSRSGQAHHGQVSYISPPIHLDSELERPSVKDISTTGPLGMGSTTTSTTLRTTTLSPGRSTTPSVSGRRNRSTSTPSPAVEVLDDMTTHLPSASSQIPALEESCEAVEAREIMWFKTRQGQIAKQPCPAGTIGVSTYLCLAPDGIWDPQGPDLSNCSSPWVNHITQKLKSGETAANIARELAEQTRNHLNAGDITYSVRAMDQLVGLLDVQLRNLTPGGKDSAARSLNKAMVETVNNLLQPQALNAWRDLTTSDQLRAATMLLHTVEESAFVLADNLLKTDIVRENTDNIKLEVARLSTEGNLEDLKFPENMGHGSTIQLSANTLKQNGRNGEIRVAFVLYNNLGPYLSTENASMKLGTEALSTNHSVIVNSPVITAAINKEFSNKVYLADPVVFTVKHIKQSEENFNPNCSFWSYSKRTMTGYWSTQGCRLLTTNKTHTTCSCNHL
chain 2: TNFAVLMAHVEVKHSDAVHDL
modifications: biotin on the Avi-tag (BirA) where used biotinylated
B3: synthetic antibody fragment (sAB) LK30 (Fab, V domains shown)
VH: EVQLVESGGGLVQPGGSLRLSCAASGFNIYYSSIHWVRQAPGKGLEWVAYISPYSGSTSYADSVKGRFTISADTSKNTAYLQMNSLRAEDTAVYYCARYKYGQGHMGAFDYWGQGTLVTVSS
VL: DIQMTQSPSSLSASVGDRVTITCRASQSVSSAVAWYQQKPGKAPKLLIYSASSLYSGVPSRFSGSRSGTDFTLTISSLQPEDFATYYCQQSNTELVTFGQGTKVEIK

One assay has as its target LK29. Description: SPR. On the technique in general: SPR reads the build-up and loss of mass on a sensor chip optically.
The next assay deals with LK31. The assay is described as follows: SPR.
A further assay deals with LK12. The assay is described as follows: SPR.
The target in another assay is LK25. Description: ELISA.
Another assay has as its target T1, Lec domain of ADGRL3. Description: SPR.
For assay [1], the target named is B2. Description: SPR.
The target of assay [2] is B1. The assay is described as follows: SPR.
Assay [3] deals with B2. Description: SPR.
Assay [4] addresses B1. The assay is described as follows: SPR.

“And” between values parts separate entries of the source, which are not always exact repeats. Equal values may be shown once.

As a reminder, the Kd is the equilibrium constant for the complex coming apart. A higher Kd goes with weaker binding. The koff is the rate constant with which the complex falls apart. Low readings indicate slow dissociation, high ones fast dissociation. Regarding B1, the results for the Kd with LK29, in the assay with LK31 and with LK12 were 2.5 nM, 3.6 nM and 12.5 nM, respectively. Further, the koff with LK29 amounted to 0.001 s⁻¹; with LK31, 0.0029 s⁻¹; in the assay with LK12, 0.0099 s⁻¹.

Take B2: the Kd came to 4.1 nM in the assay with LK29, 3.8 nM with LK31, 8.3 nM with LK12 and 56.8 nM with LK25. Moreover, the koff with LK29 worked out at 0.0015 s⁻¹; in the assay with LK31, 0.002 s⁻¹; in the assay with LK12, 0.0032 s⁻¹.

For the molecule B3, the koff with Lec domain of ADGRL3 is 0.0113 s⁻¹; in [1], 0.0058 s⁻¹; in the assay with ADGRL3 Lec/Olf fragment [2] it was 0.0066 s⁻¹ and 0.0049 s⁻¹. The Kd in assay [3] was 4.2 nM; with ADGRL3 Lec/Olf fragment [4], 5.4 nM and 3.7 nM.
